Several values for one entry are separate records, joined by “and”; a condition that tells them apart may be missing. Equal entries are not always repeated.
T1: human prolactin receptor (human, UniProt P16471 25-622)
T1 sequence (looked up): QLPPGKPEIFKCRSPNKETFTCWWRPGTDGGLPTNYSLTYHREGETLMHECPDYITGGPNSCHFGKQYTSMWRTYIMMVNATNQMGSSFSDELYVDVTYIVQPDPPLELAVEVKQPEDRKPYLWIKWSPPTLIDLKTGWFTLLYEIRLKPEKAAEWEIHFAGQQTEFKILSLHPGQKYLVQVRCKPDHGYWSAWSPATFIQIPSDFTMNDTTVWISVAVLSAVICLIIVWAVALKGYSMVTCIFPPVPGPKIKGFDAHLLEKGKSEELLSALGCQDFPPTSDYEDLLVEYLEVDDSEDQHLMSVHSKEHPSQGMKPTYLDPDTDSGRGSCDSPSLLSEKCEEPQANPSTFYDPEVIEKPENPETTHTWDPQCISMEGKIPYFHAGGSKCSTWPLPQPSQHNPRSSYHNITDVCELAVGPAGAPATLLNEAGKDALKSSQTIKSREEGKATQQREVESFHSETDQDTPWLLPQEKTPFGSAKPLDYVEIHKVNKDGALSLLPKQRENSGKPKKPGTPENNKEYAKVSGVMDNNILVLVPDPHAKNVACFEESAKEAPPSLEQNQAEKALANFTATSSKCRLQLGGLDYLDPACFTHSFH


Molecular target: T1, human prolactin receptor
Assay: cell-based or functional assay

Row | T47-D cell proliferation (96 well MTS assay) (molar ratio hPRL-G129R:hPRL) | apoptosis (DNA fragmentation, TUNEL assay) in T-47D cells | tyrosine phosphorylation of STAT proteins in T47-D cells (anti-phosphotyrosine immunoblot) (ratio hPRL-G129R:hPRL) | Molecule
1 | 1 and 2 | 1 | 5 | G129R variant of human prolactin (from UniProt P01236 29-227) (ligand)
2 |  | 4 ratio hPRL:G129R |  | human prolactin (ligand, UniProt P01236 29-227, looked up) LPICPGGAARCQVTLRDLFDRAVVLSHYIHNLSSEMFSEFDKRYTHGRGFITKAINSCHTSSLATPEDKEQAQQMNQKDFLSLIVSILRSWNEPLYHLVTEVRGMQEAPEAILSKAVEIEEQTKRLLEGMELIVSQVHPETKENEIYPVWSGLPSLQMADEESRLSAYYNLLHCLRRDSHKIDNYLKLLKCRIIHNNNC

Source: patent US20030022833A1 (GREENVILLE HOSPITAL SYSTEM, published 2003)
